From patent CN110590951A (ANMENGDE MEDICAL TECH SHANGHAI CO LTD, dated 2019)

Legend:
[1] = target: T1, 人ROR1 on the cell surface (endogenous on JeKo-1 cells; overexpressed on CHO-K1-hROR1 cells) (human, UniProt Q01973 30-937); experiment: Flow cytometry on JeKo-1 cells (endogenous ROR1), G3 titrated from 20 μg/mL
T1 construct: whole, on cells; also called JeKo-1细胞ROR1蛋白; CHO-K1-hROR1细胞表面的ROR1

[2] = target: T2, 重组人ROR1蛋白 (recombinant human ROR1 protein, ACROBiosystems RO1-H522y) (human, UniProt Q01973 30-403); experiment: ELISA, recombinant human ROR1 coated at 1 μg/mL, G3 titrated from 0.6 μg/ml
T2 construct: Bought protein

[3] = target: T3, 重组鼠ROR1蛋白 (recombinant mouse ROR1 protein, ACROBiosystems RO1-M5221) (mouse, UniProt Q9Z139 30-403); experiment: ELISA, recombinant mouse ROR1 coated at 1 μg/mL, G3 titrated from 15 μg/ml
T3 construct: Bought protein

[4] = target: T4, 人ROR1蛋白卷曲(Frizzled)域 (recombinant ROR1 Frizzled domain, ACROBiosystems RO1-H5222) (human, UniProt Q01973 165-305); experiment: ELISA, recombinant ROR1 Frizzled domain coated at 1 μg/mL, G3 titrated from 20 μg/ml
T4 construct: domain: 卷曲(Frizzled)域; Bought domain protein; also called 卷曲结构域; Frizzled结构域

Measured: binding result

T4 sequence (Q01973 165-305 limits assumed): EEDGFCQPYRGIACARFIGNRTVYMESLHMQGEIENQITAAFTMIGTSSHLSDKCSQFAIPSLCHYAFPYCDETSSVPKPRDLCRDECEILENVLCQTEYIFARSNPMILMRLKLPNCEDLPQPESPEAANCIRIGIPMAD
T2 sequence (Q01973 30-403 limits assumed): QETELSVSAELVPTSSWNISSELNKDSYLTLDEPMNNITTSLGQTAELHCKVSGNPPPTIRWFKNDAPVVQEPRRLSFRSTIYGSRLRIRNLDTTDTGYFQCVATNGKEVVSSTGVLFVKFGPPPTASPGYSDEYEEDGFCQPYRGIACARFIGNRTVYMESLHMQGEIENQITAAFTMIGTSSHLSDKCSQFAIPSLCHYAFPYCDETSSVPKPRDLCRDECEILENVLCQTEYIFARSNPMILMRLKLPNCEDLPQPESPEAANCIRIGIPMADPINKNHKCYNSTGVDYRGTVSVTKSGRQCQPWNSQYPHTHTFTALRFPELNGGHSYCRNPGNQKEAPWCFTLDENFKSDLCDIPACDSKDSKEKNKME
T3 sequence (Q9Z139 30-403 limits assumed): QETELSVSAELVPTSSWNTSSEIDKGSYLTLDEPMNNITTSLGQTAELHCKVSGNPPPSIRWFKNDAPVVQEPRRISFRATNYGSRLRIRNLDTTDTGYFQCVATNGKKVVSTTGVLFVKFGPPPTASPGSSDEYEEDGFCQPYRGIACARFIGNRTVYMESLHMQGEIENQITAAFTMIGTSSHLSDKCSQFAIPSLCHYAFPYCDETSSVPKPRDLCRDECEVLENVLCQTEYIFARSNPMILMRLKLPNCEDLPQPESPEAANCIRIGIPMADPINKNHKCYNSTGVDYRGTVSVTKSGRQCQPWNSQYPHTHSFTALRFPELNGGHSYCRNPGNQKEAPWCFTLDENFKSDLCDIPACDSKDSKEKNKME
T1 sequence (Q01973 30-937): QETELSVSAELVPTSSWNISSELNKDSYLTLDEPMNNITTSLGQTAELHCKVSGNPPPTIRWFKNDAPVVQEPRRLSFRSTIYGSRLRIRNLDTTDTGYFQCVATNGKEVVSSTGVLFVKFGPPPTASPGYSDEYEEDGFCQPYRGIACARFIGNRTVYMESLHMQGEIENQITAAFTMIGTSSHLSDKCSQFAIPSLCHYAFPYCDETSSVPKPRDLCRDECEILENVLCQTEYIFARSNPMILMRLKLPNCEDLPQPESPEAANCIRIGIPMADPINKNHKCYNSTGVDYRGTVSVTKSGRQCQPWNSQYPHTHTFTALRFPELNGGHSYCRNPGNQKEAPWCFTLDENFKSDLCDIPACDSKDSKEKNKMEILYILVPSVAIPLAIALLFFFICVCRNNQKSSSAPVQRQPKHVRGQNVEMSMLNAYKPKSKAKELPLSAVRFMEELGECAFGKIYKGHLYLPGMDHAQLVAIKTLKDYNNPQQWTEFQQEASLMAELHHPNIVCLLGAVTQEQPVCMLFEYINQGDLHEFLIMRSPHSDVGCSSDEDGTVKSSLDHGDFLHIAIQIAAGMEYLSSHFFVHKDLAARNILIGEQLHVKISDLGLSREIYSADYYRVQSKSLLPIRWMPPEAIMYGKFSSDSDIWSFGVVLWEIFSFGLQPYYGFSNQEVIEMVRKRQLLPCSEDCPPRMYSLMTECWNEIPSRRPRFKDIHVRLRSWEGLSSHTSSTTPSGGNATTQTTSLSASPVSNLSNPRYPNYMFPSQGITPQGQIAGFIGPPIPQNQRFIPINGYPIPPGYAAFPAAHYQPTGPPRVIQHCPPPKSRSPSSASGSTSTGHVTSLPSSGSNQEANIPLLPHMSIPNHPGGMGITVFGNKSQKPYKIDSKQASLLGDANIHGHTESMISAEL

B1: 抗ROR1的全人源单克隆抗体G3 (antibody, human IgG1, kappa, V domains shown)
VH: QVQLQQWGAGLLKPSETLSLTCAVYGGSFSGYYWSWIRQPPGKGLEWIGEINHSGSTSYNPSLKSRVTISVDTSKNQFSLKLSSVTAADTAVYYCARGHSSGWYRRYFDLWGRGTLVTVSS
VL: IVLTQSPATLSLSPGERATLSCRASQSVSSYLAWYQQKPGQAPRLLIYDASNRATGIPAKFSGSGSGTDFTLTISSLEPEDFAVYYCQQRSNWPPTFGGGTKVEIKR
notes: Full-length fully human IgG1/kappa, expressed in Expi-CHO-S and purified on Protein A (150 kDa); also called G3单克隆抗体; 抗人ROR1抗体G3
binds: all assays above
